Measurements published in US20140057807A1 (UNIVERSITY OF CHICAGO, published 2014).
Numbering of substitutions follows the chain as printed.

T1: human Abl SH2 domain (human, UniProt P00519 112-232, limits assumed)
T1 construct: domain: SH2 domain; poly-histidine tagged in selection; tag cleaved for SPR and crystals; also called Ab1SH2; SH2 domain of Abl kinase
T1 sequence (looked up): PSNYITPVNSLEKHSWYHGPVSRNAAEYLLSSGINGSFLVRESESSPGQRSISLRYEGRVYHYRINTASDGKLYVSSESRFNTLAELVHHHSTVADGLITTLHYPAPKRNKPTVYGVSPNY

B1: ySMB-17 (designed binder)
chain: VSSVPTKLEVVAATPTSLLISWDASSSSVSYYRITYGETGGNSPVQEFTVPGSSSTATISGLSPGVDYTITVYAYIQYYDLYYASPISINYRT
notes: variable loops only; library YSGW
B2: ySMB-20 (designed binder)
chain: VSSVPTKLEVVAATPTSLLISWDAGYYMNYYMVDYYRITYGETGGNSPVQEFTVPGSSSTATISGLSPGVDYTITVYAYWYDEYGQYWWSESPISINYRT
notes: as for B1
B3: SEQ ID NO 18 (designed binder)
chain: VSSVPTKLEVVAATPTSLLISWDAPAVTVDYYVITYGETGGNSPVQEFTVPGSKSTATISGLSPGVDYTITVYAWSWKYWYHGSPISINYRT
B4: SEQ ID NO 14 (designed binder)
chain: VSSVPTKLEVVAATPTSLLISWDAPAVTVDHYHITYGETGGSWSGYQEFTVPGSKSTATISGLSPGVDYTITVYANSSWYWYNPISINYRT
B5: SEQ ID NO 12 (designed binder)
chain: VSSVPTKLEVVAATPTSLLISWDAPAVTVDHYNITYGETGAFWHYVQAFTVPGSKSTATISGLSPGVDYTITVYAEWDQYVVGSPISINYRT
B6: SEQ ID NO 20 (designed binder)
chain: VSSVPTKLEVVAATPTSLLISWDAPAVTVLYYVITYGETGGNSPVQEFTVPGSKSTATISGLSPGVDYTITVYATDYGPGYPYESPISINYRT
B7: SEQ ID NO 22 (designed binder)
chain: VSSVPTKLEVVAATPTSLLISWDAPAVTVDHYFITYGETGGSWSYYQEFAVPGSKSTATISGLSPGVDYTITVYAYSYEPYYYYNPISINYRT
B8: SEQ ID NO 21 (designed binder)
chain: VSSVPTKLEVVAATPTSLLISWDAPAVTVDLYHITYGETGGVWSGYQEFTVPGSKSTATISGLSPGVDYTITVYAVQHQEIWPYYYSPISINYRT
B9: SEQ ID NO 17 (designed binder)
chain: VSSVPTKLEVVAATPTSLLISWDAPAVTVDYYVITYGETGWYSPPQEFTVPGSKSTATISGLSPGVDYTITVYAWNWSAGLQSPISINYRT
B10: SEQ ID NO 23 (designed binder)
chain: VSSVPTKLEVVAATPTSLLISWDAPAVTVDFYVITYGETGSFSPPQEFTVPGSKSTATISGLSPGVDYTITVYAMMWGWEYYDYNISPISINYRT
B11: SEQ ID NO 27 (designed binder)
chain: B10 chain
B12: SEQ ID NO 25 (designed binder)
chain: B10 chain
B13: SEQ ID NO 13 (designed binder)
chain: VSSVPTKLEVVAATPTSLLISWDAPAVTVDYYVITYGETGGGYYSFQAFEVPGSKSTATISGLSPGVDYTITVYAFWPDDYYYGGSEYSPISINYRT
B14: SEQ ID NO 24 (designed binder)
chain: VSSVPTKLEVVAATPTSLLISWDAPAVTVDLYIITYGETGSYHGWQTFTVPGSKSTATISGLSPGVDYTITVYADSSTWPYWYYSSPISINYRT
B15: SEQ ID NO 26 (designed binder)
chain: VSSVPTKLEVVAATPTSLLISWDAPAVTVDHYVITYGETGGVWYGYQEFTVPGSKSTATISGLSPGVDYTITVYAMTSYFQEYWSPISINYRT
B16: SEQ ID NO 19 (designed binder)
chain: VSSVPTKLEVVAATPTSLLISWDAPAVTVDFYIITYGETGGGYYSYQTFTVPGSKSTATISGLSPGVDYTITVYANEFGKSYPYTMNPISINYRT
B17: SEQ ID NO 15 (designed binder)
chain: VSSVPTKLEVVAATPTSLLISWDAPAVTVDHYVITYGETGAHYYYFQEFEVPGSKSTATISGLSPGVDYTITVYAVSHGTDGNKLYFFSPISINYRT
B18: SEQ ID NO 30 (designed binder)
chain: B3 chain with Y31F, V33F, S76D, W77N, K78W, Y79D, W80D, H82Y, G83Y
B19: SEQ ID NO 38 (designed binder)
chain: VSSVPTKLEVVAATPTSLLISWDAPAVTVDYYVITYGETGVPYYGWQEFEVPGSKSTATISGLSPGVDYTITVYAYPGSNWFYDWWSPISINYRT
B20: SEQ ID NO 32 (designed binder)
chain: VSSVPTKLEVVAATPTSLLISWDAPAVTVDLYFITYGETGGNSPVQEFTVPGSKSTATISGLSPGVDYTITVYAWYYGYYGPQYTSPISINYRT
B21: SEQ ID NO 42 (designed binder)
chain: VSSVPTKLEVVAATPTSLLISWDAPAVTVDYYVITYGETGGNSPVQEFEVPGSKSTATISGLSPGVDYTITVYATYGDAYWHYYYSPISINYRT
B22: SEQ ID NO 39 (designed binder)
chain: VSSVPTKLEVVAATPTSLLISWDAPAVTVDFYVITYGETGSYGSYPQAFEVPGSKSTATISGLSPGVDYTITVYTESEGYISSSPISINYRT
B23: SEQ ID NO 35 (designed binder)
chain: VSSVPTKLEVVAATPTSLLISWDAPAVTVDYYVITYGETGAFGSGQEFEVPGSKSTATISGLSPGVDYTITVYAKWMYSYMYNPISINYRT
B24: SEQ ID NO 37 (designed binder)
chain: VSSVPTKLEVVAATPTSLLISWDAPAVTVVYYNITYGETGGNSPVQEFTVPGSKSTATISGLSPGVDYTITVYAWYEYGGYMEIDSPISINYRT
B25: SEQ ID NO 41 (designed binder)
chain: B24 chain with V30D, N33Y, E77W, Y78N, G79D, G80Y, E83S, I84S, D85M
B26: SEQ ID NO 31 (designed binder)
chain: VSSVPTKLEVVAATPTSLLISWDAPAVTVVFYVITYGETGSYSGWQEFEVPGSKSTATISGLSPGVDYTITVYAYYYQNPESYYSPISINYRT
B27: SEQ ID NO 36 (designed binder)
chain: VSSVPTKLEVVAATPTSLLISWDAPAVTVVYYFITYGETGGNSPVQEFTVPGSKSTATISGLSPGVDYTITVYAWSYELTGDYLQQFSPISINYRT
B28: ySMB-67 (designed binder)
chain: VSSVPTKLEVVAATPTSLLISWDAGSFGFHDPVYYYRITYGETGGNSPVQEFTVPGSSSTATISGLSPGVDYTITVYAYYQYMDYYYSYSPISINYRT
notes: as for B1
B29: ySMB-91 (designed binder)
chain: VSSVPTKLEVVAATPTSLLISWDASYSSSSVSYYRITYGETGGNSPVQEFTVPGSSSTATISGLSPGVDYTITVYAYYYSYYYYYSYSPISINYRT
notes: variable loops only; library YS
B30: ySMB-64 (designed binder)
chain: VSSVPTKLEVVAATPTSLLISWDASQFSGVSYYRITYGETGGNSPVQEFTVPGSYSTATISGLSPGVDYTITVYAYYHEHWGYYSYSPISINYRT
notes: as for B1
B31: ySMB-90 (designed binder)
chain: VSSVPTKLEVVAATPTSLLISWDASSSSVSYYRITYGETGGNSPVQEFTVPGSSSTATISGLSPGVDYTITVYAYYYSYYYSYSYSPISINYRT
notes: as for B29
B32: ySMB-74 (designed binder)
chain: B31 chain with S78F, Y80D, S82W, Y83M, S84A
notes: as for B1
B33: ySMB-71 (designed binder)
chain: B31 chain with Y77V, S78G, Y79D, Y80G, S82Y, Y83W, Y85E
notes: as for B1
B34: ySMB-69 (designed binder)
chain: B31 chain with Y77S, S78T, Y80W, S82D, Y83W, Y85G
notes: as for B1
B35: Clone# 1 (ySUMO Monobodies) (designed binder)
chain: B31 chain with Y77S, S78Y, Y80D, Y81I, S82Y, S84A, Y85V, I88S
notes: recovered against ySUMO from the SUMO-targeted library

molecular target: T2, yeast small ubiquitin-like modifier protein (yeast, UniProt Q12306 3-98 = SUMO); assay: SPR; column 'Estimated Kd (nM)'
T2 construct: GST fusion in most phage ELISAs, His-tagged or tag-cleaved elsewhere; also called ySUMO; yeast SUMO
In short: (§1)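 Binding was measured by surface plasmon resonance on a Biacore 2000, with purified His-tagged molecules captured on an NTA surface to a theoretical maximum target response of 100-200 RU. Target was passed over at several concentrations at 30 μL/min while the binding signal was recorded. Kinetic fits were made in BIAevaluation software, or equilibrium responses at multiple concentrations were fit to a 1:1 saturation binding curve. The estimated Kd came from one of these two approaches.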

T2 sequence (Q12306 3-98 limits assumed): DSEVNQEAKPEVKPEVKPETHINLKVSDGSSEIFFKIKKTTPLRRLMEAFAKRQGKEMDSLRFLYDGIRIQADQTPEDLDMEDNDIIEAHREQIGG

Binder	Kd
B1	40 nM
B2	66 nM

molecular target: human ubiquitin (human, UniProt P0CG48 1-76); assay: phage display selection hit, BL1 library

Binder	binding result
B3	binds
B4	binds
B5	binds
B6	binds
B7	binds
B8	binds
B9	binds
B10	binds
B11	binds
B12	binds
B13	binds
B14	binds
B15	binds
B16	binds
B17	binds

molecular target: T1, human Abl SH2 domain; assay: phage display selection hit, BL1 library

Binder	binding result
B18	binds
B19	binds
B20	binds
B21	binds
B22	binds
B23	binds
B24	binds
B25	binds
B26	binds
B27	binds

molecular target: T2, yeast small ubiquitin-like modifier …; assay: SPR; column 'Estimated Kd (nM)' [Continued]
In short: as §1

Binder	Kd
B28	1000 nM
B29	1000 nM
B30	280 nM
B31	320 nM
B32	544 nM
B33	230 nM
B34	138 nM

molecular target: T2, yeast small ubiquitin-like modifier …; assay: SPR (monobody on the chip via His-tag, target flowed); estimated Kd
Description: Cradle molecules purified as described above were immobilized via His-tag to an NTA surface using a Biacore™ 2000 instrument so that the theoretical maximum response (Rₘₐₓ) from target binding was 100-200 RU. Target protein at varying concentrations was then flowed over the surface at a flow rate of 30 μL/min and the binding signal recorded. Fitting of kinetic traces was carried out using the BIAevaluation software. For equilibrium experiments, the equilibrium binding response was recorded for multiple target concentrations and fit to a simple 1:1 saturation binding curve.

Binder	Kd
B35	39 nM
